Test results published in the DeepSol protein solubility set.

Assay: soluble on expression in E. coli; label from the status in PepcDB or PDB records

Sequence: MSLRDTQTQLRNEMIYSVFVRNYSEAGNFAGVTADLQRIKDLGTDILWLLPINPIGEVNRKGTLGSPYAIKDYRGINPEYGTLADFKALTDRAHELGMKVMLDIVYNHTSPDSVLATEHPEWFYHDADGQLTNKVGDWSDVKDLDYGHHELWQYQIDTLLYWSQFVDGYRCDVAPLVPLDFWLEARKQVNAKYPETLWLAESAGSGFIEELRSQGYTGLSDSELYQAFDMTYDYDVFGDFKDYWQGRSTVERYVDLLQRQDATFPGNYVKMRFLENHDNARMMSLMHSKAEAVNNLTWIFMQRGIPLIYNGQEFLAEHQPSLFDRDTMVADRHGDVTPLIQKLVTIKQLPLLRAADYQLAVVEEGIVKITYRAAGEALTAWIPLKGQVTAVATKLAAGSYQNLLTDGPTEVVDGKLTVDGQPVLIKYVTNTAVTKVADQSNEGHHHHHH
- soluble on expression in E. coli: soluble

Sequence: MTFQETISAYIQERYQITPDFPFKKHPDYLVFRHPRNAKWFALIMPLDAQLLGATENKQLTILTVKLAPELIALLKNQPGYFPAYHMNKEHWLSLSEEIPLSQVFSFIDESYQRSYLEHHHHHH
- soluble on expression in E. coli: soluble

Sequence: MAHHHHHHMERCLLLSAWPTLHEREVKEASEFVRSSSVSRRDSMALSLNHAGAFPSASHSGTHRGSFATMLATGSRAASPHPHDPCATPPPGIRCLDLPEHYHARDTRKNKSAVNDYDEDEDDGAYRSGSCSRCLSRASSFSLGAGGMTPLAWKMSSSMNGESPSCRATESPCSAFAQEHLVATAVMERRVNRMAGGISFQGMTPMDALLAGRLAPPDRREEQQELDESGDARGVSPPFRERSMAPAELVAERTGRQQPR
- soluble on expression in E. coli: not soluble

Sequence: MSETQNSTSQKAMDEDNKAASQTMPNTQDKNYEDELTQVALALVEDVINYAVKIVEEERNPLKNIKWMTHGEFTVEKGLKQIDEYFSKCVSKKCWAHGVEFVERKDLIHSFLYIYYVHWSISTADLPVARISAGTYFTMKVSKTKPPDAPIVVSYVGDHQALVHRPGMVRFRENWQKNLTDAKYSFMESFPFLFNRVLEHHHHHH
- soluble on expression in E. coli: soluble

Sequence: MFMIEVEIFPHRYLKASTTEKFLNKIYDLKTVERVVIHGQPLPKVITYGPARGLPVNHTERKIIHVKGVPVELTVMAGRFWITLSDDSELDKLDEICKEMFPFGYNLRVGKFLKDRPTVTDYIKYGEDGVFLINEMDRRLIGMVDPRSRMANSVTVVEKEEKEELEHHHHHH
- soluble on expression in E. coli: soluble

Sequence: MFKRLMMVALLVIAPLSAATAADQTNPYKLMDEAAQKTFDRLKNEQPQIRANPDYLRTIVDQELLPYVQVKYAGALVLGQYYKSATPAQRDAYFAAFREYLKQAYGQALAMYHGQTYQIAPEQPLGDKTIVPIRVTIIDPNGRPPVRLDFQWRKNSQTGNWQAYDMIAEGVSMITTKQNEWGTLLRTKGIDGLTAQLKSISQQKITLEEKK
- soluble on expression in E. coli: not soluble

Sequence: MKKVGKSTFKFENCPIISDCFTIVGKKEGEGPLGLFFDMVVEDEYAGQKSWELAEGKLLNIAISKLIQKSGFTPDEVDLILSGDLLNQLTSSHFAARDLNIPFIGLYGACSTFALSVGLACVFVDGGFAKNIIAATSSHFCSAEKQFRYPLELGCQRPPTAQWTVTGAASFLIKPEDGTQKPKITHFTVGKILDYGIKDSNNMGACMAPAAFDTITTHLEDTKRDFTYYDIIVTGDLGYVGRKLLEELFKKEGKTLSFELLDCGILMFDQKTQDTGAGASGCAASACIFGGYFYKLMLQKTFKRILIVPTGALLSSSTVQLGESIPVIAHALSIEIELEHHHHHH
- soluble on expression in E. coli: not soluble

Sequence: LIGYVRVSTNDQNTDLQRNALNCAGCELIFEDKISGTKSERPGLKKLLRTLSAGDTLVVWKLDRLGRSMRHLVVLVEELRERGINFRSLTDSIDTSTPMGRFFFHVMGALAEMERELIVERTKAGLETARAQGRIGGRRPKLTPEQWAQAGRLIAAGTPRQKVAIIYDVGVSTLYKRFPAGDK
- soluble on expression in E. coli: soluble

Sequence: MAQEVIKIRGGRTLNGEVNISGAKNSAVAIIPATLLAQGHVKLEGLPQISDVKTLVSLLEDLNIKASLNGTELEVDTTEIQNAALPNNKVESLRASYYMMGAMLGRFKKCVIGLPGGCPLGPRPIDQHIKGFKALGAEIDESSTTSMKIEAKELKGAHIFLDMVSVGATINIMLAAVYATGQTVIENAAKEPEVVDVANFLTSMGANIKGAGTSTIKINGVKELHGSEYQVIPDRIEAGTYMCIAAACGENVILNNIVPKHVETLTAKFSELGVNVDVRDERIRINNNAPYQFVDIKTLVYPGFATDLQQPITPLLFMANGPSFVTDTIYPERFKHVEELKRMGANIEVDEGTATIKPSTLHGAEVYASDLRAGACLIIAGLIAEGVTTIYNVKHIYRGYTDIVEHLKALGADIWTETV
- soluble on expression in E. coli: not soluble
